Target: T1, PAI-1 (Homo sapiens, UniProt P05121)
T1 construct: gift of Pr; P. Declerck
Assay: Inhibition of PAI-1 anti-proteolytic activity, uPA/plasminogen chromogenic (colorimetric) assay
Type: biochemical
Settings: uPA, bovine plasminogen, PAI-1, absorbance 405 nm
Protocol: The main physiological function of PAI-1 is to inhibit uPA and tPA proteolytic activity. […] A chromogenic substrate for plasmin (Spectrozyme PL: 0.5 mM. American Diagnostica INC) in PBS was added to the mixture in 96-well microtitration plates and kept at room temperature. The release of free p-nitro-aniline from the chromogenic substrate was measured spectrophotometrically. The activity of plasmin was determined as the absorbance at 405 nm.

T1 sequence (P05121 24-402): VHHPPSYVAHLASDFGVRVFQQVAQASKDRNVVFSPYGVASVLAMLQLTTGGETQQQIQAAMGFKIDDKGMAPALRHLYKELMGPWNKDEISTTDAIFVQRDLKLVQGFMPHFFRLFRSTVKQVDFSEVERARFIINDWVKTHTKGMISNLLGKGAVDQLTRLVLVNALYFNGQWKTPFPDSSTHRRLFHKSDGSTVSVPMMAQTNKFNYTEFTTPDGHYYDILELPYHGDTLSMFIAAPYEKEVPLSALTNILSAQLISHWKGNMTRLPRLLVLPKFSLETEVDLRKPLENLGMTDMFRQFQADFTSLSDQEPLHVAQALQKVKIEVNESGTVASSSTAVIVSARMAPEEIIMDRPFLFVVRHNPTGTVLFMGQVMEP

B1: 23K PRL: the full fragment (full-length) prolactin (protein)
chain: LPICPGGAARCQVTLRDLFDRAVVLSHYIHNLSSEMFSEFDKRYTHGRGFITKAINSCHTSSLATPEDKEQAQQMNQKDFLSLIVSILRSWNEPLYHLVTEVRGMQEAPEAILSKAVEIEEQTKRLLEGMELIVSQVHPETKENEIYPVWSGLPSLQMADEESRLSAYYNLLHCLRRDSHKIDNYLKLLKCRIIHNNNC
inhibition of PAI-1 function to inhibit uPA and tPA proteolytic activity: did not show any inhibition
